Results from patent publication US20190218532.

Target: SpCas9::KQ (nuclease-deficient) KQ insertion (Streptococcus pyogenes) (UniProt Q99ZW2)
Test: cell_activity
Conditions: PAM TGG; half the fraction of GFP-positive cells of SpCas9

Sequence of UniProt Q99ZW2 (Q99ZW2 whole entry): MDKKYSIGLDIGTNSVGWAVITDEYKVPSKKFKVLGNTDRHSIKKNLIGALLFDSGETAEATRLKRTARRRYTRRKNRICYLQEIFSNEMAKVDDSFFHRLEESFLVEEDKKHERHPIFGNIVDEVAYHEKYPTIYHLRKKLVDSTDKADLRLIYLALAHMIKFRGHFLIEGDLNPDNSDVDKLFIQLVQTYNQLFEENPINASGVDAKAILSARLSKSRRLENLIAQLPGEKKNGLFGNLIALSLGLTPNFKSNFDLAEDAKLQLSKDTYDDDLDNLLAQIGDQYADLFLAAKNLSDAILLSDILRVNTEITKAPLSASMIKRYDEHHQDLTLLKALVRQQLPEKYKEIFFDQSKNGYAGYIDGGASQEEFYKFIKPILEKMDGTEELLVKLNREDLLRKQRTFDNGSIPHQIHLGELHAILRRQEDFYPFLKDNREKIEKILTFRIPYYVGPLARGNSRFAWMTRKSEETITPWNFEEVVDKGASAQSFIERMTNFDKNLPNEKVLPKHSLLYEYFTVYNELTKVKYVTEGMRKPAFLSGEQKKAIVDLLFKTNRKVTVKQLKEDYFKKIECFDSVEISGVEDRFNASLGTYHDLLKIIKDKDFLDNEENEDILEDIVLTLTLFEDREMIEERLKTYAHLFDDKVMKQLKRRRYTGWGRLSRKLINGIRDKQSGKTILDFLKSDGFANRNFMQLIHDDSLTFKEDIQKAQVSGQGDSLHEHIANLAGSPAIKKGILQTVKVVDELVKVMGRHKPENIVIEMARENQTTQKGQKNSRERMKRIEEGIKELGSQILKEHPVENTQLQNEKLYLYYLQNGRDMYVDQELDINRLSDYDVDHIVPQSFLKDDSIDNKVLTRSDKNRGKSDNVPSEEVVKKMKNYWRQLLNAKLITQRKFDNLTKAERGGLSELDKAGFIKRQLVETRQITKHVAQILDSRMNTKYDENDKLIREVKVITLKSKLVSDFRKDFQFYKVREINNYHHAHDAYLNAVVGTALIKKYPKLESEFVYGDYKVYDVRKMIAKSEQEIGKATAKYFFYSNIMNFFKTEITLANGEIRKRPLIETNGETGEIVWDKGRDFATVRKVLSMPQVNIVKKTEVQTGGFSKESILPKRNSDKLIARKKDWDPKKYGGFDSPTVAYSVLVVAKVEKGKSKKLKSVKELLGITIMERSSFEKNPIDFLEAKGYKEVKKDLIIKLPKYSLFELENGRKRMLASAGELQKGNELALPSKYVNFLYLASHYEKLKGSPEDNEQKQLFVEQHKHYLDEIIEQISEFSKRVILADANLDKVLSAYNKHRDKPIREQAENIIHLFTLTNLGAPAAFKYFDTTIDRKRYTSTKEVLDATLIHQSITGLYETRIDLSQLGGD

Work on “CGAAAGGUUUUGCACUCGAC / CGAAAGGTTTTGCACTCGACTGG / CCAGTCGAGTGCAAAACCTTTCG” yielded a binding signal (fraction of SpCas9 GFP-positive cells) of 0.5.
